The values below come from patent publication US20220033505A1 (Janssen / Centocor, published 2022).

Assay [1] deals with T1, HLA-G1 on K562 cells (K562-HLA-G) (human).
T1 construct: also called cells expressing HLA-G
Description: flow cytometry; IgG1 mAb on cells expressing HLA-G.

Assay [2] addresses T2, MHGW8 (B2m-3(G4S)-HLA-G1-G4S-Avi), soluble HLA-G1 extracellular domain (human, biotinylated (Avi tag) in the ligand blocking assay).
T2 construct: also called HLA-G (MHGW8); recombinant biotinylated HLA-G1 (MHGW8)
As to the kind of experiment: competition, flow cytometry: antibody titrated against MHGW8-dextramer binding to ILT2 on HEK293T cells (competitor ILT2).

Assay [3] concerns the target T2, MHGW8 (B2m-3(G4S)-HLA-G1-G4S-Avi), …. As to the kind of experiment: competition, flow cytometry: antibody titrated against MHGW8-dextramer binding to ILT4 on HEK293T cells (competitor ILT4).
Assay [4] concerns the target T3, CD3 on human T cells (Jurkat cells, primary human T cells) (human, UniProt P07766 23-207).
T3 construct: whole, on cells; also called CD3 epsilon; T cell receptor complex
Description: T cell binding (method not described).

The target in assay [5] is T1, HLA-G1 on K562 cells (K562-HLA-G). Description: K562-HLA-G cell binding (method not described).

T3 sequence (P07766 23-207): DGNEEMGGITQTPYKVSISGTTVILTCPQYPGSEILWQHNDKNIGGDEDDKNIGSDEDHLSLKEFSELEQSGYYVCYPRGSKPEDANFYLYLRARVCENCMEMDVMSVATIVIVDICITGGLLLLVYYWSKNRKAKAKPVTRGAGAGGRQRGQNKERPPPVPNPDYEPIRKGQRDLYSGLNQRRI

B1: MHGB688 (antibody, human IgG1, kappa, V domains shown)
VH: EVQLLESGPGLVKPSQTLSLTCVISGDSVSSNRAAWNWIRQSPSRGLEWLGRTYYRSKWYNDYAVSVKSRITINSDTSKNQISLQLNSVTPEDTAVYYCARVRPGIPFDYWGQGTPVTVSS
VL: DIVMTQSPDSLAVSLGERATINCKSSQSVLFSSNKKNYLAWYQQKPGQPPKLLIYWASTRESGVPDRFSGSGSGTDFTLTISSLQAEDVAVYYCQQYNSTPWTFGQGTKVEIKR
notes: IgG1 mAb
Turning to B1, the “Geomean fluorescence signal (maximum value for binding)” value (“Geomean fluorescence signal” below) in assay [1] is 482000. In addition, the EC50 came to 1.72 nM in assay [2] and 1.42 nM in assay [3].

B2: MHGB694 (antibody, human IgG1, kappa, V domains shown)
VH: EVQLLESGGGLVQPGGSLRLSCAASGFTFSSYAMHWVRQAPGKGLDWVSGISGSGFSTYYVDSVKGRFTISRDNSKHTLYLQMNSLRAEDTAVYYCAKDNLVAGTVFDYWGQGTLVTVSS
VL: not shown
notes: IgG1 mAb
On to B2, for which the “Geomean fluorescence signal” value in assay [1] came to 473000. Besides, the concentration for a half-maximal effect (EC50) in assay [2] came out at 0.64 nM; in assay [3] it was 0.2 nM.

B3: MHGB669 (antibody, human IgG1, kappa, V domains shown)
VH: QVQLQQSGPGLVRPSQTLSVTCAISGDSVSSNSASWNWIRQSPSRGLEWLGRTYYRSEWFNDYAVSVKSRVTINPDTSKNQLSLQLNSVIPEDTAVYYCAREARIGVAGKGFDYWGQGTLVTVSS
VL: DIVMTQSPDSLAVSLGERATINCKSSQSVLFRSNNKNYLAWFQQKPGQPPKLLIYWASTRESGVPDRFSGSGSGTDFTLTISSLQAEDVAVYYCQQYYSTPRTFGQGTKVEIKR
notes: IgG1 mAb
In the case of B3, in assay [1], the “Geomean fluorescence signal” value was determined as 616000. The figures for the EC50 in assay [2] and in assay [3] were 1.7 nM and 1.59 nM, respectively.

B4: HC3B258 (CD3B376-Fab-Fc x MHGB732-LH-scFv-Fc) (bispecific antibody, human IgG1, lambda, L234A L235A)
heavy: QVQLQQSGPRLVRPSQTLSLTCAISGDSVFNNNAAWSWIRQSPSRGLEWLGRTYYRSKWLYDYAVSVKSRITVNPDTSRNQFTLQLNSVTPEDTALYYCARGYSSSFDYWGQGTLVTVSSASTKGPSVFPLAPSSKSTSGGTAALGCLVKDYFPEPVTVSWNSGALTSGVHTFPAVLQSSGLYSLSSVVTVPSSSLGTQTYICNVNHKPSNTKVDKKVEPKSCDKTHTCPPCPAPEAAGGPSVFLFPPKPKDTLMISRTPEVTCVVVSVSHEDPEVKFNWYVDGVEVHNAKTKPREEQYNSTYRVVSVLTVLHQDWLNGKEYKCKVSNKALPAPIEKTISKAKGQPREPQVYVYPPSREEMTKNQVSLTCLVKGFYPSDIAVEWESNGQPENNYKTTPPVLDSDGSFALVSKLTVDKSRWQQGNVFSCSVMHEALHNHYTQKSLSLSPGK
light: QSALTQPASVSGSPGQSITISCTGTSSNIGTYKFVSWYQQHPDKAPKVLLYEVSKRPSGVSSRFSGSKSGNTASLTISGLQAEDQADYHCVSYAGSGTLLFGGGTKLTVLGQPKAAPSVTLFPPSSEELQANKATLVCLISDFYPGAVTVAWKADSSPVKAGVETTTPSKQSNNKYAASSYLSLTPEQWKSHRSYSCQVTHEGSTVEKTVAPTECS
scFv: DIVMTQSPDSLAVSLGERATINCKSSQSVLHSSNNKNYLTWFQQKPGQPPKLLIYWASTRESGVPDRFSGSGSGTDFTLTISSLQAEDVAVYYCHQYYSTPPTFGQGTKVEIKGGSEGKSSGSGSESKSTGGSQVQLQQSGPGLVKPSQTLSLTCAISGDSVSSNSAAWNWIRQSPSRGLEWLGRTYYRSKWYNDYAVSVKSRITINPDTSKNQISLQLNSVTPEDTAVYYCAGDRRYGIVGLPFAYWGQGTLVTVSSEPKSSDKTHTCPPCPAPEAAGGPSVFLFPPKPKDTLMISRTPEVTCVVVSVSHEDPEVKFNWYVDGVEVHNAKTKPREEQYNSTYRVVSVLTVLHQDWLNGKEYKCKVSNKALPAPIEKTISKAKGQPREPQVYVLPPSREEMTKNQVSLLCLVKGFYPSDIAVEWESNGQPENNYLTWPPVLDSDGSFFLYSKLTVDKSRWQQGNVFSCSVMHEALHNHYTQKSLSLSPGK
Take B4: the results for the EC50 in assay [4] and in assay [5] were 60 nM and 11 nM, respectively.

B5: MHGB672 (antibody, human IgG1, kappa, V domains shown)
VH: QVQLQQSGPGLVKPSQTLSLTCAISGDSVSSNRAAWNWIRQTPSRGLEWLGRTYYRSEWYNDYAVSVKSRITINPDTSKNQFSLQLNSVTPEDTAVYYCARVRAAVPFDYWGQGTLVTVSS
VL: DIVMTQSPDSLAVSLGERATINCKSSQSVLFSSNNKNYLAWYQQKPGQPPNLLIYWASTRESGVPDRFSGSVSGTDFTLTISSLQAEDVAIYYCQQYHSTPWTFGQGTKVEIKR
notes: IgG1 mAb
Consider B5, for which the “Geomean fluorescence signal” value in assay [1] was found to be 522000. The values for the EC50 in assay [2] and in assay [3] were 2.12 nM and 1.61 nM, respectively.
